Substitutions are numbered along the chain they refer to. Names may count otherwise.

T1: rhesus ILT3-His tagged recombinant protein (rhesus monkey (Macaca mulatta))
T1 construct: also called ILT3_MM; not shown: His tag
T1 chain: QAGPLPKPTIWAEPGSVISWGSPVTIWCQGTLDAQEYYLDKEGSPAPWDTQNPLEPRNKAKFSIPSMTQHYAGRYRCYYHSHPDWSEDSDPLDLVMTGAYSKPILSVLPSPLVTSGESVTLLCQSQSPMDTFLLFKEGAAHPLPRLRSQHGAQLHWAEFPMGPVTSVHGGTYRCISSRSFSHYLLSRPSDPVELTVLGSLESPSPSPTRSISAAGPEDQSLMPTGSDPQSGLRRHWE

B1: Humanized anti-ILT3 mAb (52B8 VH1 M64V/VL2) IgG4 S228P/Kappa (antibody)
heavy: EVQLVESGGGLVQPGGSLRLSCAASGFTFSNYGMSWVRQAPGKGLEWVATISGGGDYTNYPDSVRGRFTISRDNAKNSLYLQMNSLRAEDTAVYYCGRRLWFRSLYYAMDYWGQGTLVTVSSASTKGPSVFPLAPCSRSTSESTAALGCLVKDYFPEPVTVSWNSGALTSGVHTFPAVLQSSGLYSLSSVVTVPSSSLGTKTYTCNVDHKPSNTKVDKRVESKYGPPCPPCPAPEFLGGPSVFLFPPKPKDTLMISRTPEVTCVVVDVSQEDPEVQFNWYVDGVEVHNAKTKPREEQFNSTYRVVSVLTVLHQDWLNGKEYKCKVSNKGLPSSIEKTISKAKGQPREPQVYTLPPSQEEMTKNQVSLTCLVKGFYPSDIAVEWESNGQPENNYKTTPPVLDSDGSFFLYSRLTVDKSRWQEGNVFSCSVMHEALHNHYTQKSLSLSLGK
light: DIVLTQSPDSLAVSLGERATINCRASEKVDSFGNSFMHWYQQKPGQPPKLLIYLTSNLDSGVPDRFSGSGSGTDFTLTISSLQAEDVAVYYCQQNNEDPYTFGQGTKLEIKRTVAAPSVFIFPPSDEQLKSGTASVVCLLNNFYPREAKVQWKVDNALQSGNSQESVTEQDSKDSTYSLSSTLTLSKADYEKHKVYACEVTHQGLSSPVTKSFNRGEC
notes: also called mAb 10
B2: Humanized anti-ILT3 mAb ((52B8 VH1 M64V/VL8) L234A L235A D265S) IgG1/Kappa (antibody)
heavy: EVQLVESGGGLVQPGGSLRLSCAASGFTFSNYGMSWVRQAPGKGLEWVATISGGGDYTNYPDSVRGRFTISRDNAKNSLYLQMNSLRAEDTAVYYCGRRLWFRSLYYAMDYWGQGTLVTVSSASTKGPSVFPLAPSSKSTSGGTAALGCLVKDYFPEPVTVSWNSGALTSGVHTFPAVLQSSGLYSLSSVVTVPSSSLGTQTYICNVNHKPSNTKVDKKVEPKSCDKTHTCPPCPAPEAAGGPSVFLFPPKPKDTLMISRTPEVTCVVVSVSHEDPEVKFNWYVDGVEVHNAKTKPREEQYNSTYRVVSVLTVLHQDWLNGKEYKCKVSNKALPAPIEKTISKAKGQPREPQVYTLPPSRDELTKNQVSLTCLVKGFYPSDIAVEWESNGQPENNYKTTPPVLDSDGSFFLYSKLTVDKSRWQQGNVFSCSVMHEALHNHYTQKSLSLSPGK
light: DIQLTQSPSSLSASVGDRVTITCRASEKVDSFGNSFMHWYQQKPGKAPKLLIYLTSNLDSGVPARFSGSGSRTDFTLTISSLQPEDFATYYCQQNNEDPYTFGQGTKLEIKRTVAAPSVFIFPPSDEQLKSGTASVVCLLNNFYPREAKVQWKVDNALQSGNSQESVTEQDSKDSTYSLSSTLTLSKADYEKHKVYACEVTHQGLSSPVTKSFNRGEC
notes: also called mAb 29
B3: Humanized anti-ILT3 mAb (52B8 VH1 M64V/VL5) IgG4 S228P/Kappa (antibody)
heavy: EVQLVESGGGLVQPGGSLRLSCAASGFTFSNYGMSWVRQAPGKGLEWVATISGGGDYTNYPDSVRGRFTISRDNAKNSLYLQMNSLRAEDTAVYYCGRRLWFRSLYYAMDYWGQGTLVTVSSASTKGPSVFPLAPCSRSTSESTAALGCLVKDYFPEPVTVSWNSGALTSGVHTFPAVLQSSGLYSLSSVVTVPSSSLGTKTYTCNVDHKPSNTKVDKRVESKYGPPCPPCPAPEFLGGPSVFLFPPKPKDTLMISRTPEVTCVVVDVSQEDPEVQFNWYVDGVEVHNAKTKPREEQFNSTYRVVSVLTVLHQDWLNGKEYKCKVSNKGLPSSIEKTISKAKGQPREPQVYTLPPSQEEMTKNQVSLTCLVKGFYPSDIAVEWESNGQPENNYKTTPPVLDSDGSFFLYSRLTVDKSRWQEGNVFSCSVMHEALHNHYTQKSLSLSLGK
light: B2 light with A64S, R72G
notes: also called mAb 30; humanized 52B8 VH1 M64V/VL5
B4: Humanized anti-ILT3 mAb (52B8 VH1 M64V/VL7) IgG4 S228P/Kappa (antibody)
heavy: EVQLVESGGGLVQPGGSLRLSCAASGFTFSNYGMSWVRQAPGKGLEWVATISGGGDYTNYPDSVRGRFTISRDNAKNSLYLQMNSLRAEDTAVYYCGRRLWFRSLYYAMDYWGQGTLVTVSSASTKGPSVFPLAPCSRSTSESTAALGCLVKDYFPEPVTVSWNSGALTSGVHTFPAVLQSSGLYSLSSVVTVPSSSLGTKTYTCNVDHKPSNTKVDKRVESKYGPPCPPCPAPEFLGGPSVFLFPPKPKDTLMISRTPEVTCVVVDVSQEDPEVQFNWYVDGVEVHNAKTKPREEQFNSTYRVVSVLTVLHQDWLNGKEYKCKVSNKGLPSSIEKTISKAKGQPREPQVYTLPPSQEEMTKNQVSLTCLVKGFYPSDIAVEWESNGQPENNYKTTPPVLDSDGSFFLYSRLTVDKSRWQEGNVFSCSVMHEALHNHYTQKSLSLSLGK
light: B2 light with A64S
notes: also called mAb 32
B5: Humanized anti-ILT3 mAb (52B8 VH1 M64V/VL6) IgG4 S228P/Kappa (antibody)
heavy: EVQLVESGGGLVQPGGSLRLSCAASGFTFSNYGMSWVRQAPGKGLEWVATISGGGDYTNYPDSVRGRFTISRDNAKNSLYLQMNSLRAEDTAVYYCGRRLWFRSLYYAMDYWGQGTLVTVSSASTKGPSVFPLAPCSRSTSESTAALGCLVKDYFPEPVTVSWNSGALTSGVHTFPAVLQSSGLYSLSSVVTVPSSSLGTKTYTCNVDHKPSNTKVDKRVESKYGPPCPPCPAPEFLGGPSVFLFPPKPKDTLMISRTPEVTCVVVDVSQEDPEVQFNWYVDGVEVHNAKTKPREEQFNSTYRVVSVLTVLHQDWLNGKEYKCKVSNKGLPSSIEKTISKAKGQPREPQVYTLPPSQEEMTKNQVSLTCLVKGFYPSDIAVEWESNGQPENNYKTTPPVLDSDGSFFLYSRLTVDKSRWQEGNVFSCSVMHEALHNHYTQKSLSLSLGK
light: B2 light with L4M, A64S
notes: also called mAb 31
B6: Humanized anti-ILT3 mAb (52B8 VH1 M64V/VL8) IgG4 S228P/Kappa (antibody)
heavy: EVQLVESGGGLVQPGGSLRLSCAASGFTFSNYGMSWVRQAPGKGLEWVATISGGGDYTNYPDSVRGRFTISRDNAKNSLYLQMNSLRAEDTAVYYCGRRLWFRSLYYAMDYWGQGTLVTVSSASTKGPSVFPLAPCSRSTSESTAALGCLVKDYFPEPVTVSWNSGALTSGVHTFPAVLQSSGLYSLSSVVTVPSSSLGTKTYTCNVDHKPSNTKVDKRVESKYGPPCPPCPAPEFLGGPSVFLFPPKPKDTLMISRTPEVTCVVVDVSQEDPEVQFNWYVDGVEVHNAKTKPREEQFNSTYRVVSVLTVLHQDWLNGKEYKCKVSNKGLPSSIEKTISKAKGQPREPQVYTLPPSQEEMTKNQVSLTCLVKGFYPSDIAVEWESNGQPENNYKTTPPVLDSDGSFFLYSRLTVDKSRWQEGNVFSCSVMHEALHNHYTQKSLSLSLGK
light: B2 light
notes: also called mAb 33
B7: Mouse anti-ILT3 mAb 11D1 IgG2b/Kappa (antibody, V domains shown)
VH: QVQLQQSGAELMKPGASVKISCKATGYTFRTYWIEWVKQRPGHGLEWIGEILPGNGNTHFNENFKDKATFTADTSSNAAYMQLSSLTSEDSAVYYCVRRLGRGPFDFWGQGTTLTVSS
VL: DIQMTQSPSSLSVSLGGKVTITCKASQDINEYIGWYQRKPGKGPRLLIHYTSTLQSGIPSRFSGSGSGRDYSLSISNLEPEDIATYYCLQYANPLPTFGGGTKLEIK
notes: Mouse IgG2b/Kappa; also called p11D1; LB182.11D1.1A1
B8: Mouse anti-ILT3 mAb 1G12 IgG2a/Kappa (antibody, V domains shown)
VH: QVQMQQSGTELMKPGASMKISCKATGYTFSTYWIQWIKQRPGHGLEWIGEILPGSGTTNYNENFKGKATFSADTSSNTAYIHLSSLTSEDSAVFYCARRLGRGPFDYWGQGTTLTVSS
VL: DIQMTQSPSSLSASLGGKVTITCEASQDINKHIDWYQHQPGRGPSLLIHYASILQPGIPSRFSGSGSGRDYSFSITSLEPEDIATYYCLQYDNLLPTFGGGTKLEIK
notes: Mouse IgG2a/Kappa; also called p1G12; LB182.1G12.1B1
B9: Rat anti-ILT3 mAb 17H12 IgG1/Kappa (antibody, V domains shown)
VH: EVQLVESGGGLVQPGRSMKLSCAASGFTFSNFDMAWVRQAPTRGLEWVSSITYDGGSTSYRDSVKGRFTISRDNAKGTLYLQMDSLRSEDTATYYCTTVESIATISTYFDYWGQGVMVTVSS
VL: DIVLTQSPALAVSLGQRATISCRASQSVSMSRYDLIHWYQQKPGQQPKLLIFRASDLASGIPARFSGSGSGTDFTLTINPVQADDIATYYCQQTRKSPPTFGGGTRLELK
notes: Rat IgG1/Kappa; also called p17H12; LB190.17H121A1

One experiment concerns the target T1, rhesus ILT3-His tagged recombinant …. As to the kind of experiment: SPR (Biacore), rhesus ILT3-His. How it is done:
(§1) The binding kinetics and affinities of anti-human ILT3 clones for human or rhesus ILT3-His tagged recombinant protein were measured by surface plasmon resonance using a Biacore™ T200 system (GE Healthcare, Piscataway, NJ). HBS-EP+ buffer (BR-1006-69) was used as the running buffer. Anti-human Fc antibody (Human Fc Capture Kit, BR100839, GE Healthcare) was immobilized via amine coupling chemistry in all four flow cells on a Series S CM5 sensor chip (BR100530 or 29149603, GE Healthcare) following manufacturer instructions. Flow cell 1 was used as reference for background subtraction and was not used for capture. […] Following each injection cycle, all four flow cells were regenerated using 30 second injection of 3M MgCl₂ solution at a flow rate of 10 μL/minute. Reference subtracted sensorgrams were fit to a 1:1 Langmuir Binding Model in the Biacore™ T200 Evaluation Software (Version 2.0) to determine the association (ka) and dissociation (kd) rate constants and the equilibrium dissociation constant KD (=kd/ka).
(Surface plasmon resonance follows binding to a sensor surface in real time, without labels.)
Regarding B1, the dissociation constant (Kd) was found to be 22 nM.

In the case of B2, the dissociation constant (Kd) turned out to be 5.7 nM.

For B3, the dissociation constant (Kd) worked out at 4.8 nM.

With B4, the equilibrium dissociation constant (Kd) amounted to 5.6 nM.

For the molecule B5, the Kd was 10 nM.

As to B6, the Kd was determined as 5.6 nM.

Another experiment concerns the target T2, Human ILT3 (LILRB4) extracellular domain with C-terminal His Tag (human, UniProt Q8NHJ6 22-259).
T2 construct: the claims count residues 1-238 as the extracellular domain; also called human ILT3-His; ILT3_H
Nature of the experiment: SPR (Biacore), human ILT3-His.
On to B7, for which binding was put at a Kd of 14.1 nM.

Molecule B8 yielded a Kd of 16.9 nM.

In turn, B9 had a Kd of 0.592 nM.

For the next experiment, the target named is T1, rhesus ILT3-His tagged recombinant …. As to the kind of experiment: SPR (Biacore), rhesus ILT3-His. The source holds these as a separate data set.
Consider B8, for which the binding result is “no binding”.

Turning to B9, the binding result is “no binding”.

Another experiment has as its target T2, Human ILT3 (LILRB4) extracellular …. As to the kind of experiment: SPR (Biacore), human ILT3-His. This is another data set of the same source. How it is done:
as §1
Consider B1, for which the Kd amounted to 1.1 nM.

In the case of B2, the dissociation constant (Kd) came to 0.56 nM.

In turn, B3 had an equilibrium dissociation constant (Kd) of 0.6 nM.

For the molecule B4, the Kd was 0.53 nM.

B5 displayed a Kd of 0.88 nM.

As to B6, binding was put at a Kd of 0.54 nM.

In another experiment the target is T3, human ILT3 expressed on cells (human, UniProt Q8NHJ6 22-448).
T3 construct: whole, on cells; also called huILT3; LILRB4
Nature of the experiment: cELISA, CHO human ILT3 cells.
For the molecule B7, the EC50 worked out at 50.5 µg/mL.

In turn, B1 returned an EC50 of 0.085 µg/mL.

As to B8, the 50% effective concentration (EC50) amounted to 39.2 µg/mL.

B9 displayed a 50% effective concentration (EC50) of 139 µg/mL.

A further experiment concerns the target T4, Rhesus monkey ILT3 expressed on CHO-K1 cells (rhesus monkey (Macaca mulatta)).
T4 construct: whole, on cells; also called rhILT3; CHO-rhesus ILT3
As to the kind of experiment: cELISA, CHO rhesus ILT3 cells.
As to B1, it took 0.148 µg/mL to reach a half-maximal effect (EC50).

The target of another experiment is T3, human ILT3 expressed on cells. As to the kind of experiment: cELISA, CHO human ILT3 cells. The source holds these as a separate data set. How it is done: Mouse anti-human ILT3 antibodies were tested for binding to human ILT3, and cross-reactivity to Rhesus monkey ILT3, human ILT5, human ILT7, human ILT8, and human ILT11 expressing CHO-K1 cells using a cell-based ELISA format. CHO-K1 cells were plated in 96-well tissue-culture plates in 50 μL of DMEM/F12, 10% BCS and gentamycin (CHO-K1 media). Cells were plated at either 2×10⁴ cells/well two days prior to the assay or 4×10⁴ cells/well one day prior to the assay. Media was removed from the wells prior to adding the test samples. Purified antibody was serially-diluted in CHO-K1 media and added to the CHO-K1 plates. The samples were incubated at room temperature for 30-60 minutes and plates were washed three times with PBS/05% Tween-20 using the cell wash program on the Biotek EL405x Select CW plate washer. Binding was detected using an HRP-conjugated goat anti-mouse IgG (Southern Biotech cat #1031-05) secondary antibody added at a 1:2000 dilution in CHO-K1 media and incubated at room temperature for 30-60 minutes. Assay plates were washed as above and developed with TMB and stopped with TMB stop solution (KPL cat #50-85-06). The absorbance at 450 nm—620 nm was determined. Mouse IgG1 (MIgG1) served as a control.
Molecule B7 displayed an EC50 of 0.0505 µg/mL.

With B8, the EC50 was determined as 0.0392 µg/mL.

B9 registered a concentration for a half-maximal effect (EC50) of 0.139 µg/mL.

Another experiment addresses T1, rhesus ILT3-His tagged recombinant …. Nature of the experiment: Biacore SPR, column rhILT3 KD (nM).
As to B1, the equilibrium dissociation constant (Kd) was 8.77 nM.

For the molecule B2, the Kd came out at 5.74 nM.

For the molecule B3, the Kd is 4.8 nM.

For the molecule B4, the Kd worked out at 5.61 nM.

As for B5, the Kd stood at 10.3 nM.

In the case of B6, the Kd is 5.59 nM.

The target of the next experiment is T2, Human ILT3 (LILRB4) extracellular …. Nature of the experiment: Biacore SPR, column huILT3 KD (nM).
B1 came in with a Kd of 0.72 nM.

B2 yielded a Kd of 0.56 nM.

In turn, B3 came in with an equilibrium dissociation constant (Kd) of 0.6 nM.

In turn, B4 registered a Kd of 0.53 nM.

B5 registered a Kd of 0.88 nM.

For the molecule B6, binding was put at a Kd of 0.54 nM.

The Kd is the free concentration of one partner at which half of the binding sites on the other are occupied at equilibrium, for simple one-to-one binding. As usually defined, the EC50 is the concentration needed to bring the measured effect to its halfway point.
